From the nanobody polyreactivity screen of Harvey et al. (2022)

Experiment: yeast display, Sf9 membrane polyspecificity reagent, FACS + sequencing; frameworks hold sequencing errors
Procedure, shortened: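 A synthetic nanobody library was expressed on Saccharomyces cerevisiae BJ5465 by galactose induction for 36–48 hours. The library was stained for 1 hour at 4 °C with 10% biotinylated, detergent-solubilized Sf9 membrane reagent and enriched with streptavidin microbeads before FACS. Low and high (top ~1%) gates were set on anti-HA fluorescence for expression and streptavidin fluorescence for reagent binding, and each polyreactivity label reflects the gate of origin.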

Row | Sequence | polyreactivity (PSR sort gate)
1 | HVQLVESGGGLVQAGGSLRLSCAASGFISVRNGMGWYRQAPGKERELVAAITGSGGSTYYADSVKGRFTISRDNAKNTVYLQMNSLKPEDTAVYYCARTYTVSRKRMGYWGQGTQVTVSS | high polyreactivity
2 | HVQLVESGGGLVQAGGSLRLSCAASGGIFFDNAMGWYRQGPGKERELVAAIRGDSGSTYYADSVKGRFTISRDNAKNTVYLQMNSLKPEDTAVYYCAAALRDYYPGGEYYSQYEYWGQGTQVTVSS | low polyreactivity
3 | HVQLVESGGGLVQAGGSLRLSCAASGITFASYGMGWYRPAPGKDRELVAAISQRGGRTYYADSVKGRFTISRDNAKNTVYLQMNSLKPEDTAVYYCARTVGYRTLLESDSWGQGTQVTVAS | high polyreactivity
4 | HVQLVESGGGLVQAGGSLRLSCAASGITLVRYAMGWFRPAPGKERELVAAISSSGGSTYYADSVKGRFTISRDNAKNTVYLQMNSLQPEDTAVYYCNAYVHSRRVEFNYWGQGTQVTVSS | high polyreactivity
5 | HVQLVESGGGLVQAGGSLRLSCAASGRIFLIYAMGWYRQAPGKEWELFAAIRSGGSTNYADSVKGRFTISRDNAKNTVYLLMNSLNPEDTAVYYCAVRSRVYPSRVKYDYWGQGTQVTVSS | high polyreactivity
6 | HVQLVESGGGLVQAGGSLRLSCAASGRIFWYYTMGWSRQAPGKERELVASINSDSGTYYADSVKGRFTISRDNAKNTVYLQMNRLKPEDTAVYYCTRDSESDANTFTTSGIDEPYDYWGQGTQVTVSS | low polyreactivity
7 | HVQLVESGGGLVQAGGSLRLSCAASGRIFYIYAMGWYRQAPGKERELVAGIRSRGGSTYYADSVKGRFTISRDNAKNTVYLQMNSLKPEDTAVYYCTTEIWGVNSSGYDYWGQGTQVTVSS | low polyreactivity
8 | HVQLVESGGGLVQAGGSLRLSCAASGRILYGNAMGWYRKAPGKDRELVAAISWRADSTYYADSVKGRFTISRDNAKNTVYLQMNSLKPEDTAVYYCAADGNYRRHYWGQGTQVTVSS | high polyreactivity
9 | HVQLVESGGGLVQAGGSLRLSCAASGRTFFRYVMGWYRQAPGKERELVAAISRSGGSTYYADSVKGRFTISRDNAKNTFYLQMNSLKPEDTAVYYCAASAGPRASYYYWGQGTQVTVSS | high polyreactivity
10 | HVQLVESGGGLVQAGGSLRLSCAASGRTFYRYAKGWYRQAPGKEREFVAAISRSGGSTYYAVSVKGRFTISRDNAKNTVYLQMNSLKPEDTAVFYSNKYYWYPYGRAHDYGYWGQGTQVTVSS | high polyreactivity
11 | HVQLVESGGGLVQAGGSLRLSCAASGSIFADNAMGWYRQAPGNERELVAAISRTGGSTYYADSVKGRFTISRDNAKNTVYLQMNSLKPEDTAVYYCAADNGYGRYRRYYYWGQGTQVTVSS | high polyreactivity
12 | HVQLVESGGGLVQAGGSLRLSCAASGSIFVPNAMGWYRQALGKERELVAAITYSGGDTYYADSVKGRVTISRDNAMNTVYLQMNSLKPEDTAVYYCAADNGRVGYDYWGQGTQVTVSS | low polyreactivity
13 | HVQLVESGGGLVQAGGSLRLSCAASGSIYHIYSMGRYRQAPGKERELVAAISFSGGSTYYADSVKGRFTISRDNAKNTVYLQMNSLKPEDNAVYYCAADVYWLPYYYWGQGTLVTVSS | high polyreactivity
14 | HVQLVESGGGLVQAGGSLRLSCAASGSTFAGNAMGWYRQAPGKEWELVAAIDSSTGSTYYADSVKGRFTISRDNAKNTVNLQMNSLKPEDTAVYYCNKTSFLVKLDYWGQGTQVTVSS | low polyreactivity
15 | HVQLVESGGGLVQAGGSLRLSCAASGSTIGRYAIGWYRQAPGEERELVAAISYSGGSTYYADSVKGRFTISRDNAKNTVYIQMNSLKPEDTAAYYCAKGLSTGRAYRGYDYWGQGTQVTVSS | high polyreactivity
16 | HVQLVESGGGLVQAGGSLRLSCAASGSTLYSYAMGWYRQAPGKARELVAAISIGDSTNYADSVKGRFTISRDNAKNTVYLQMNSLKPEDTAVYYCNADRALGYYVVVFIFEYWGQGTQVTVSS | low polyreactivity

Row | Sequence | polyreactivity (PSR sort gate)
17 | HVQLVESGGGLVQAGGSLRLSSTASGSTFGYYAMGWNRQAPGKERELVAAISGIGGSTYYADSVKGRFTISRDNAKNTVYLQMNSLKPEDTAVYFCAADLYYVTWDYNYWGQGTQVTVSS | low polyreactivity
18 | HVQLVESGGGLVQAGGSQRLSCAPSGSTFYYNAMGSYRQAPGKERELVAAISKTGGSTYYADSVKGRFTISRDYAKNTVYLQMNSLKPVDTAVYYCAAVGSRGAWARRGYWGQGTHVTVSS | high polyreactivity
19 | HVQLVESGGGLVQARGSLRLSCAASGSTFDNYTMGWYRQAPGKERELVAAITRNSGSTYYADSVKGRFTISRDNEKNSVYLHMNSLKPEDTAVYYCAADSYYRRYFGWYEYWGQGTQVTVSS | high polyreactivity
20 | HVQLVESGGGLVQEGGSLRLSCAASGSILNQNAMGWYRQARGKERELVASISWDGDRTYYADSVKGRFTISRDNAKNTVYLQMNSLKPEDTAVYYCAASFYGIDRMGYWGQGTQVTVSS | low polyreactivity
21 | HVQLVESGGGLVQEGRSLRLSCAASGFTFVGNAMGWYRQATGKERELVAAIRWSSGSTYYADSVKWRFTISRDNAKNTVYLQMNSLKPDDTAVYYCNAVYSVFYEYDYWGQGTQVTVSS | low polyreactivity
22 | HVQLVESGGVLVQAGGSLRLSCAASGRIFRQNTMGWYRQAPGKEREIDATISWRGTRTNYADSVKGRFTISRDNAKNTVYLQMNSLKPEDTAVYYCNAQSWAYTLRTSLYDYWGQGTQVTVSS | high polyreactivity
23 | HVQLVESGVGLVQAAGILRLSCAASGRTFSVYVMGWYRQATGKERELVAAISTSGARTYYADSVKGRFTISRDHAKNTVFLQMNSLKPEATAVYYCGARAIYKSKYDYWGHGTQVTVSS | high polyreactivity
24 | HVQLVESGVGLVQAGGSLRLSCAASGSTFDGYLMGWYRQAPGKERELVAAISRSGGSTYYADSVKGRFTIARDNAKNTVYLQMNSLKPEDTAVYYCAARNSPGLPGDYWGQGTQVTVSS | high polyreactivity
25 | IIQAGGSLRLCCAASGRTISVYAMGWYTQAAGKERELIADITSGGSTNYADSVKGRFTISRDNAKNTVYLQRNSLKPEDTAVYYCVAERQIRSFWSSRTYVFGYWGQGTQVTVSS | low polyreactivity
26 | IIQAGGSLRLSCAASGSTLIGYTMGWYRQAPGKERELVAAITWGAGSTNYADSVKGRFTISRDNAKNTVYLQMNSLKPEDTAVYYCNADSTSDPRYLGEYDYWGQGTQVTVSS | low polyreactivity
27 | KDQLVESGGGLVQAGGSLRLSCAASGRTFSHYTMGWYIQAPGKERELVARITRRGGRTYYADSVKGRFTISRDDAKNTVFLQMISLKPEDSAVYFCANEPWGYTRYTTYDYWGQGTQVTVSS | high polyreactivity
28 | KLQLVESGGGLDQAGGSLRLSCAASGSIFVAYAMGSYRQAPGKERELVAAISKSGGSKYYADSVKGRFTISRDNAKNTVFLQMNSLKPEDTAVYYCAAGSDDFSRFGYWGQGTQVTVSS | low polyreactivity
29 | KVQHVESGGGLVQAGGSLRLSCAASGLTFYTNAMGWYRQPPGKESEFVADITTSGGDTYYADSVKGRFTISRDNAKNTVYLQMNSLKPEDTAVYYCGEFWSYWGYGQYDYWGQGTQVTVSS | low polyreactivity
30 | KVQLGESGGGLVQAGGSLRLSCAASGFIFGYNGMGWYRQAPGKERELVAGITYSDGSTYYADSVKGRFTISRDNAKNTVYLQMNSLKPEDTAVYYCAVDVIYYWAEDYDYWGQGTQVTVSS | low polyreactivity
31 | KVQLVDSGGGLVQAGGSLRLSCAASGSIFGDNAMGWYIQAPGKERELVAAISIVGSTSYADSVKGRFTISRDNAKNTVYLLMNSLKPEDTAVYYCAAENVRSDTGFDYCGQGTQVTVSS | low polyreactivity
32 | KVQLVESGAGLVQAGGSLRFSCAASGSIFIVYAMGWYRPAPGKERELVADITNGGDTNYADSVKGRFTISRDNAKNTVYLQMNSLKPEDTAVYYCAKYLWSYRVRTNVWRSYYWGQGTQVSVSS | high polyreactivity
